This note sets out measurements from article PMC10296332, “Vertically-Ordered Mesoporous Silica Film Based Electrochemical Aptasensor for Highly Sensitive Detection of Alpha-Fetoprotein in Human Serum”.

This data set deals with T1, alpha-fetoprotein (AFP) (UniProt P02771 19-609).
T1 sequence: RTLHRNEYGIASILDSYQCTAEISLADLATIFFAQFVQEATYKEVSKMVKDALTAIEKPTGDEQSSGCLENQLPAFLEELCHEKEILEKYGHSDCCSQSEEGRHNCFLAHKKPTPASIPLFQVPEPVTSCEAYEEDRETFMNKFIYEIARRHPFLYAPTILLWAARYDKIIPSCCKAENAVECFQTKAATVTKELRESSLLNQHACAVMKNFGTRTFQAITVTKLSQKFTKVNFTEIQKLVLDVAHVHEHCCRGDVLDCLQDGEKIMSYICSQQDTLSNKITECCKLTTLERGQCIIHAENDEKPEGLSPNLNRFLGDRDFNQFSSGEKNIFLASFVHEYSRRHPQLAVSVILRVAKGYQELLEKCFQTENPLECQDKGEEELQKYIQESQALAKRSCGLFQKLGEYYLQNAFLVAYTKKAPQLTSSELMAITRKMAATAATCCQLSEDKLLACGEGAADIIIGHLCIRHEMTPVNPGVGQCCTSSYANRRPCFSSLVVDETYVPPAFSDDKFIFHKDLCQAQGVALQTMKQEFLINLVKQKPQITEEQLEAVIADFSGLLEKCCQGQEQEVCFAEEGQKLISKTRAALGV
As to the kind of experiment: electrochemical aptasensor (DPV, CV, EIS; Fe(CN)6 3-/4- probe); immobilized aptamer, BSA-blocked; linear 1 pg/mL-1 ug/mL, LOD 0.31 pg/mL (not a Kd); AFP incubated 1 h at 4 C on aptamer electrode, rinsed with 0.01 M PBS (sodium phosphate) pH 7.4; read-out in 2.5 mM K3/K4[Fe(CN)6], 0.1 M KCl. The conditions noted are these: protein: commercial.

B1: AFP aptamer (ssDNA)
DNA: GTGACGCTCCTAACGCTGACTCAGGTGCAGTTCTCGACTCGGTCTTGATGTGGGTCCTGTCCGTCCGAACCAATC
modifications: 5'-NH2, coupled to GPTMS epoxy groups on mesoporous silica film
Consider B1, for which the binding result is listed as “binds”.
